Test results from PMC5299624.

How the values were obtained:
Test in all cases: ITC
[1] = molecular target: human NaV1.2 C-terminal domain (CTD), amino acids 1777-1937, wild type (human) (UniProt Q99250)
[2] = molecular target: human NaV1.2 CTD (1777-1937) H1853R (human) (UniProt Q99250)
[3] = molecular target: human NaV1.2 CTD (1777-1937) R1918H (human) (UniProt Q99250)
[4] = molecular target: human NaV1.5 C-terminal domain (CTD), amino acids 1773-1940, wild type (human) (UniProt Q14524)
[5] = molecular target: human NaV1.5 CTD (1773-1940) D1790G (human) (UniProt Q14524)
[6] = molecular target: human NaV1.5 CTD (1773-1940) L1917K (human) (UniProt Q14524)
[7] = molecular target: human NaV1.5 CTD (1773-1940) Q1909R (human) (UniProt Q14524)
[8] = molecular target: human NaV1.5 CTD (1773-1940) R1913H (human) (UniProt Q14524)
[9] = molecular target: human NaV1.5 CTD (1773-1940) Y1795C (human) (UniProt Q14524)
[10] = molecular target: human NaV1.5 CTD (1773-1940) Y1795H (human) (UniProt Q14524)
[11] = molecular target: human NaV1.6 C-terminal domain (CTD), amino acids 1769-1926, wild type (human) (UniProt Q9UQD0)

Substance: calmodulin (CaM) (from UniProt P0DP23 1-149) (natural protein)
- dH [1]: -4.54 kcal/mol
- stoichiometry N [1]: 1.02
- dH [2]: -8.3 kcal/mol
- dH [3]: -7.5 kcal/mol
- dH [4]: -10.5 kcal/mol
- dH [5]: -10.5 kcal/mol
- stoichiometry N [5]: 0.25
- dH [6]: -9.8 kcal/mol
- stoichiometry N [6]: 0.98
- dH [7]: -14.9 kcal/mol
- stoichiometry N [8]: 0.73
- dH [9]: -7.43 kcal/mol
- stoichiometry N [9]: 0.92
- dH [10]: -10.2 kcal/mol
- stoichiometry N [10]: 0.76
- dH [11]: -17.5 kcal/mol
